T1: Hel308 Mbu(E284C/S615C)-bismaleimidePEG11 (Methanococcoides burtonii, UniProt Q12WZ6 SEQ:1-760, E284C/S615C)
T1 sequence: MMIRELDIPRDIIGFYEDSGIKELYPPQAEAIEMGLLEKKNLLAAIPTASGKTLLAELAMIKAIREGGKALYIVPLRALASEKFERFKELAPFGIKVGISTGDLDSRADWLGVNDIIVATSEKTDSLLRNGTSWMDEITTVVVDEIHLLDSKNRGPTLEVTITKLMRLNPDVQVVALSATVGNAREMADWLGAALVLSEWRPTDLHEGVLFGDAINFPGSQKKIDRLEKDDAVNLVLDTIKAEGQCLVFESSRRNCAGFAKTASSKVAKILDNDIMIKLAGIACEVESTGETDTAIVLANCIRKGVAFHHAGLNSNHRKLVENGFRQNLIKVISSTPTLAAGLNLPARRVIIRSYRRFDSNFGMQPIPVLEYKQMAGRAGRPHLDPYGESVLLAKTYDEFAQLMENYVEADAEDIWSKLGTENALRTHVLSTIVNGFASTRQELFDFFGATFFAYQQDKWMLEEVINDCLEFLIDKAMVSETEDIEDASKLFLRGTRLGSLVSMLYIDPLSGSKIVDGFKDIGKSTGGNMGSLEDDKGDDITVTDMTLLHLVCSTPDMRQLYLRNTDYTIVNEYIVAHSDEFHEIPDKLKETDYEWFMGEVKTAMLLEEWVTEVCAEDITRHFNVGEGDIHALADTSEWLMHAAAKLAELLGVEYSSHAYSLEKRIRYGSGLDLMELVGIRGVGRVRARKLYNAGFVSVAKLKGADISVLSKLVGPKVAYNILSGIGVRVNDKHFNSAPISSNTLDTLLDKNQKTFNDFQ

T2: Hel308 Mbu(E284C/S615C)-bismaleimidePEG3 (Methanococcoides burtonii, UniProt Q12WZ6 SEQ:1-760, E284C/S615C)
T2 sequence: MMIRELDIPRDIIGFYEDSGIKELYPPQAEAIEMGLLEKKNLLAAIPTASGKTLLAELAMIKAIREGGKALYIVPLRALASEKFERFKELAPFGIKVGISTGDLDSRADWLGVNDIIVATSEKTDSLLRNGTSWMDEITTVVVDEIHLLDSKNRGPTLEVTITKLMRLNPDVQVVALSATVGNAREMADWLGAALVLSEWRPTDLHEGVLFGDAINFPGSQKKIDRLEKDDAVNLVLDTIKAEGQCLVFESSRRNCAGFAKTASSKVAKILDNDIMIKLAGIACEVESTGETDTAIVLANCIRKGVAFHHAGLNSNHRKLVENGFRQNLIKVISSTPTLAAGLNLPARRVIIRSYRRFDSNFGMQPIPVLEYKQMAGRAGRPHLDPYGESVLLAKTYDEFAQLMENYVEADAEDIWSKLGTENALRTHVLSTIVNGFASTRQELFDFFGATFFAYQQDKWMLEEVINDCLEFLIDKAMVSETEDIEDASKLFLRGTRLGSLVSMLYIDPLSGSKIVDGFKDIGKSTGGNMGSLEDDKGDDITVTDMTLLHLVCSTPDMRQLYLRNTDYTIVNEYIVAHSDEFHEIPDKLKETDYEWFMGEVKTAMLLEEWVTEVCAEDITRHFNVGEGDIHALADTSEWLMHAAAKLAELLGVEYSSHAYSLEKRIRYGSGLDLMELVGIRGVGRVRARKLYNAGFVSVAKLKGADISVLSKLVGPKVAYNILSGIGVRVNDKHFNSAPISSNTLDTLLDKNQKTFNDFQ

B1: 80 bp blocker processivity substrate (dsDNA)
DNA 1: TCGCTGCTCCACAGGTCTCAGCTTGAGCAGCGAAAATAAGAACATTATGATCAGTAGGAGCACTACGACCTTTGTTCTGGTGCTCGTCCGGGCGCCCAAAGTGGAGCGAGTGCCCCC
DNA 2: GCACTCGCTCCACTTTGGGCGCCCGGACGAGCACCAGAACAAAGGTCGTAGTGCTCCTACTGATCATAATGTTCTTATTT
DNA 3: TCGCTGCTCAAGCTGAGACCTGTGGAGCAGCGA

Columns and labels:
[1] = biological target: Heat treated Hel308 Mbu-E284Faz E284Faz (Methanococcoides burtonii) (UniProt Q12WZ6); conditions: four nitroindoles between SEQ 155 and SEQ 154; nanopore; 500 nM, 960 mM KCl, 10 mM MgCl2, 1 mM ATP
[2] = biological target: Hel308 Mbu-E284Faz E284Faz (Methanococcoides burtonii) (UniProt Q12WZ6); conditions: four nitroindoles between SEQ 155 and SEQ 154; nanopore; 100 nM, 960 mM KCl, 10 mM MgCl2, 1 mM ATP
[3] = biological target: T1, Hel308 …; test: fluorescence unwinding; increased processivity; 400 mM NaCl, 1 mM ATP, 10 mM MgCl2; conditions: tags: C284 and C615 crosslinked by bismaleimidePEG11 (closed); 3' ssDNA overhang, 80 and 33 bp duplex sections
Text: (§1) The fluorescent probe is designed in such a way that its 5′ and 3′ ends are self-complementary and thus form a kinetically-stable hairpin once displaced, preventing the probe from re-annealing to the template strand (FIG. 3 section D). Upon formation of the hairpin product, the FAM is brought into the vicinity of the BHQ-1 and its fluorescence is quenched. A processive enzyme, capable of displacing the 80 mer “blocker” (SEQ ID NO: 111) and fluorescent (SEQ ID NO: 112, labelled with a carboxyfluorescein (FAM) at its 5′ end a black-hole quencher (BHQ-1) at its 3′ end) strands will therefore lead to a decrease in fluorescence over time. However, if the enzyme has a processivity of less than 80 nt it would be unable to displace the fluorescent strand (SEQ ID NO: 112, labelled with a carboxyfluorescein (FAM) at its 5′ end a black-hole quencher (BHQ-1) at its 3′ end) and, therefore, the “blocker” strand (SEQ ID NO: 111) would reanneal to the major bottom strand (FIG. 3 section E, SEQ ID NO: 110).

[4] = biological target: T2, Hel308 Mbu(E284C/S615C)-bismaleimidePEG3; test: as above; conditions: tags: C284 and C615 crosslinked by bismaleimidePEG3 (closed); 3' ssDNA overhang, 80 and 33 bp duplex sections
Text: as §1

Molecule	activity (% movements reaching polyT) [1]	activity (% movements reaching polyT) [2]	binding result [3]	binding result [4]
3.6 kb DNA	71	28		
B1			binds	binds

Reference: US20150191709, “MODIFIED HELICASES” (OXFORD NANOPORE TECHNOLOGIES LIMITED, published 2015)
